Test results reported in patent publication US20180362652A1 (Biogen, published 2018).
Several values for one entry are separate records, joined by “and”; a condition that tells them apart may be missing. Identical values can stand only once.

Legend:
[1] = biological target: T1, cynomolgus monkey BDCA2 (full-length, cell surface, E73 SNP form) (cynomolgus monkey, UniProt Q8WTT0 1-213 (human entry)); assay: flow cytometry, whole blood pDCs of cynomolgus monkey donor 3, anti-human IgG PE secondary
T1 construct: also called cyno BDCA2; surface cynomolgus monkey BDCA2
T1 chain: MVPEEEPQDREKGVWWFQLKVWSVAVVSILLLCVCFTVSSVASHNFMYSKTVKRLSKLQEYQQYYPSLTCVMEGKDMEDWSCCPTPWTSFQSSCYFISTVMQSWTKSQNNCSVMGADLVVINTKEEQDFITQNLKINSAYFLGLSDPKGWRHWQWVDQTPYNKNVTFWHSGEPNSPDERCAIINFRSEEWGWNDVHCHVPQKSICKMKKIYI
Experimental: (§1) The MFI of PE was calculated in FlowJo software, and the percent of maximal binding, using the 40 μg/mL point as 100%, was computed. Each line represents one individual cynomolgus monkey, for a total of twelve cynomolgus monkeys, and graphed using GraphPad Prism software (four-parameter nonlinear regression curve fit of log-transformed data). Staining was repeated once a week for three weeks total.
(§2) The maximal values were taken from the values at the plateau in each assay (FIGS. 24 and 25).
(§3) MFI of PE was calculated with FlowJo software, and EC50 curves were generated in GraphPad Prism software.

[2] = biological target: T1, cynomolgus monkey BDCA2 (full-length, …); assay: indirect method: flow cytometry of pDCs in cynomolgus whole blood, unlabelled BIIB059 titrated, free BDCA2 detected with the competitor BIIB059-A647 at 10 ug/mL [panel Cynomolgus monkey 7]
Experimental: (§4) The MFI of PE (open symbols, graphed on the left y-axis) or A647 (closed symbols, graphed on the right y-axis) was calculated in FlowJo software, and graphed using GraphPad Prism software (four-parameter nonlinear regression curve fit of log-transformed data).

[3] = biological target: T1, cynomolgus monkey BDCA2 (full-length, …); assay: flow cytometry, whole blood, Alexa647-labeled BIIB059 on pDCs
Experimental: (§5) Cynomolgus monkey (Toxikon, Inc, Bedford, Mass.) or human peripheral blood (Biogen Idec) were collected in sodium heparin collection tubes and maintained at room temperature. A FACS staining antibody cocktail for identifying pDCs was added to each whole blood aliquot, incorporating CD20, CD14, CD123 and HLA-DR antibodies. […] Blood was incubated on ice, protected from light, for 30 min. […] After a 10-15 min. incubation at room temperature, samples were centrifuged at 1400 rpm for 5 min. The supernatant was decanted, leaving only a pellet of white blood cells (WBC). Each WBC pellet was washed with 5 mL of FACS buffer (1% BSA+0.002% NaAzide+1 mM CaCl₂+1 mM MgCl₂ in PBS), and centrifuged at 1400 rpm for 5 min. The supernatant was decanted, and each WBC pellet was resuspended in 200 μL of FACS buffer and transferred to a 96-well round bottom plate (Fisher Scientific). The plate was centrifuged at 1400 rpm for 5 min. The supernatant was dumped out of the plate, and each WBC pellet was washed with 200 μL of FACS buffer. The plate was centrifuged at 1400 rpm for 5 min, and the supernatant dumped out of the plate. Following washing (as above), WBCs were resuspended in 200 μL of 1% paraformaldehyde (PFA) in PBS, and fixed at 4° C. overnight, protected from light. […] Each WBC pellet was resuspended in 250 μL of FACS buffer and fluorescence intensity measured on a LSRII 4-color FACS machine. […]

[4] = biological target: T2, human C1q (human, UniProt P02745 23-245; P02746 28-253; P02747 29-245); assay: C1q ELISA: antibody coated in a dilution series, human C1q at 2 µg/mL, read at 450 nm; column C (midpoint, the C value of paragraph 430) of the printed 4-parameter fit; the axis reads Concentration with no unit, the unit of the coated antibody is from the legend paragraph 61; A 0.061, B 2.527, D 2.212, R^2 1
T2 construct: also called complement component C1q
T2 sequence (P02745 23-245 limits assumed, chain 1 of 3): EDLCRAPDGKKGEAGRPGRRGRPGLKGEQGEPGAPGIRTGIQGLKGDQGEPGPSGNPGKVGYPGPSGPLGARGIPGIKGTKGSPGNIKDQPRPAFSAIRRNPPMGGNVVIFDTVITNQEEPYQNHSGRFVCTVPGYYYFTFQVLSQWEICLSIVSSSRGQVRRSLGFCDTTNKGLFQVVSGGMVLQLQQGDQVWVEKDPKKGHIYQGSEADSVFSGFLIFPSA
T2 sequence (P02746 28-253 limits assumed, chain 2 of 3): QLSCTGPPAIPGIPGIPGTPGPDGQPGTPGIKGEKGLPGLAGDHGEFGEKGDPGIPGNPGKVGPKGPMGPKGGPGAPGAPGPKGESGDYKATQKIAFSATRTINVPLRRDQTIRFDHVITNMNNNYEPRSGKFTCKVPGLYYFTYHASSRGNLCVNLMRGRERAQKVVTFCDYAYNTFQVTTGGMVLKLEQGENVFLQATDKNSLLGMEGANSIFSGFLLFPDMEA
T2 sequence (P02747 29-245 limits assumed, chain 3 of 3): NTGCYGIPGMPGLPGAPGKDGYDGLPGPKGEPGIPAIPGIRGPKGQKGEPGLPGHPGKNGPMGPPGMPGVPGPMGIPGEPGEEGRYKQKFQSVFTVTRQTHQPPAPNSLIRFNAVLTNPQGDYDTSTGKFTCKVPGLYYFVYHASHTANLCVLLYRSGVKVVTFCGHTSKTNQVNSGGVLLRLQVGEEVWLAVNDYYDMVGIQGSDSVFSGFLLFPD

[5] = biological target: T1, cynomolgus monkey BDCA2 (full-length, …); assay: indirect method: flow cytometry of pDCs in cynomolgus whole blood, unlabelled BIIB059 titrated, free BDCA2 detected with the competitor BIIB059-A647 at 10 ug/mL [panel Cynomolgus monkey 6]
Experimental: as §4

[6] = biological target: T1, cynomolgus monkey BDCA2 (full-length, …); assay: flow cytometry, whole blood pDCs, average of the twelve cynomolgus monkey donors
Experimental: as §2, §3

[7] = biological target: T1, cynomolgus monkey BDCA2 (full-length, …); assay: flow cytometry, whole blood pDCs of cynomolgus monkey donor 6, anti-human IgG PE secondary
Experimental: as §1, §2, §3

[8] = biological target: T3, human BDCA2 (full-length, cell surface) (human, UniProt Q8WTT0 1-213); assay: flow cytometry, Alexa647-labelled BIIB059 on pDCs in human whole blood, on ice
T3 construct: also called huBDCA2; surface human BDCA2
T3 sequence: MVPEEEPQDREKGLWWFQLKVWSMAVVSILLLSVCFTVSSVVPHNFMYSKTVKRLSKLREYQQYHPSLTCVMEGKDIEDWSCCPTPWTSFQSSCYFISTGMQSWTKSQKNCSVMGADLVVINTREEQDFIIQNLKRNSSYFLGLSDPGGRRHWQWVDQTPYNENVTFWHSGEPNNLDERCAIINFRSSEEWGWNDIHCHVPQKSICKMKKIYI
Experimental: as §5

[9] = biological target: the molecule itself; assay: AlphaScreen self-association assay: glutathione donor and acceptor beads carrying human FcRIIa (CD32a) GST; a signal needs antibody on both beads to associate with itself
Experimental: The AlphaScreen assay is a homogeneous proximity assay utilizing glutathione donor and acceptor beads (Perkin Elmer) to bind human FcRIIa (CD32a) GST. Various concentrations of the antibodies to be tested were added in this mixture. […] The level of emission detected by the Envision (Perkin Elmer) instrument is proportional to the degree of self-association.

[10] = biological target: T1, cynomolgus monkey BDCA2 (full-length, …); assay: flow cytometry, whole blood pDCs of cynomolgus monkey donor 11, anti-human IgG PE secondary
Experimental: as §2, §3

EC50 [1]: 0.95 µg/mL
IC50 (read off the curve) [2]: ~2 µg/mL
EC50 [3]: 2 µg/mL and 7 nM to 13 nM
EC50 [4]: 2.5 µg/mL
IC50 (read off the curve) [5]: ~1 µg/mL
EC50 [6]: 1.2 µg/mL
EC50 [7]: 1.3 µg/mL
EC50 [8]: 1.44 µg/mL
EC50 [10]: 1.4 µg/mL
B1: BIIB059 (antibody, human IgG1, kappa)
heavy: not shown
light: DIQLTQSPSSLSASVGDRVTITCKASQSVDYDGDSYMNWYQQKPGKAPKLLIYAASTLESGVPSRFSGSGSGTDFTLTISSLQPEDFATYYCQQANEDPRTFGQGTKVEIKRTVAAPSVFIFPPSDEQLKSGTASVVCLLNNFYPREAKVQWKVDNALQSGNSQESVTEQDSKDSTYSLSSTLTLSKADYEKHKVYACEVTHQGLSSPVTKSFNRGEC
notes: Humanized IgG1 kappa, mature chains; in some assays labelled with Alexa647; also called hu24F4 H4/L1 C95A; H4-L1-C95A (YL751/YL746)
binding result [9]: no binding (tested: 250 µg/ml)
